± gives the uncertainty stated by the source.
B1: Histone H1t, residues 44 to 112; numbered along this chain, P22492 (parent)
chain: VSKLITEALSVSQERVGMSLVALKKALAAAGYDVEKNNSRIKLSLKSLVNKGILVQTRGTGASGSFKLS

Variants of: B1
Assay: abundance fitness (aPCA) (normalised: wild type 0, dead -1); higher = more abundant; growth selection in yeast, the domain comes from the species named
Conditions: Homo sapiens
With A22Y the abundance fitness was -0.034 ± 0.1.
In the case of A22H, the abundance fitness is reported as -0.158 ± 0.23.
With A22W the abundance fitness was -0.101 ± 0.3.
In the case of A22C, the abundance fitness is reported as -0.034 ± 0.18.
With A22E the abundance fitness was -0.801 ± 0.36.
For A22V, the abundance fitness was -0.358 ± 0.11.
For A22D, the abundance fitness was -0.118 ± 0.34.
A22L showed an abundance fitness of -0.393 ± 0.059.
A22I gave an abundance fitness of -0.699 ± 0.11.
In the case of A22G, the abundance fitness is reported as -0.45 ± 0.3.
With A22T the abundance fitness was -0.305 ± 0.22.
Work on A22K yielded an abundance fitness of -0.192 ± 0.24.
A22S showed an abundance fitness of 0.051 ± 0.098.
A22N showed an abundance fitness of -0.262 ± 0.33.
With A22F the abundance fitness was -0.413 ± 0.07.
For A22Q, the abundance fitness was -0.003 ± 0.16.
Work on V21L yielded an abundance fitness of -0.062 ± 0.027.
Work on V21C yielded an abundance fitness of -0.164 ± 0.11.
V21A showed an abundance fitness of 0.091 ± 0.1.
For V21Y, the abundance fitness was -0.207 ± 0.028.
For V21R, the abundance fitness was 0.113 ± 0.082.
V21S showed an abundance fitness of 0.018 ± 0.04.
Variant V21F has an abundance fitness of -0.142 ± 0.026.
Variant V21P has an abundance fitness of -0.199 ± 0.071.
Variant V21H has an abundance fitness of 0.061 ± 0.044.
Variant V21E has an abundance fitness of 0.038 ± 0.14.
In the case of V21N, the abundance fitness is reported as 0.123 ± 0.03.
V21W showed an abundance fitness of -0.16 ± 0.096.
V21M gave an abundance fitness of -0.037 ± 0.029.
Work on V21Q yielded an abundance fitness of 0.181 ± 0.055.
V21D showed an abundance fitness of 0 ± 0.093.
V21I showed an abundance fitness of -0.067 ± 0.028.
In the case of M18Y, the abundance fitness is reported as -0.487 ± 0.076.
M18T gave an abundance fitness of -0.006 ± 0.08.
M18F gave an abundance fitness of -0.481 ± 0.082.
For M18I, the abundance fitness was -0.37 ± 0.07.
With M18C the abundance fitness was -0.127 ± 0.062.
For M18R, the abundance fitness was 0.107 ± 0.072.
With M18W the abundance fitness was -0.374 ± 0.049.
M18K showed an abundance fitness of 0.238 ± 0.051.
In the case of M18L, the abundance fitness is reported as -0.077 ± 0.034.
With M18V the abundance fitness was -0.318 ± 0.039.
For M18G, the abundance fitness was -0.129 ± 0.045.
For M18E, the abundance fitness was -0.108 ± 0.055.
Work on M18S yielded an abundance fitness of 0.009 ± 0.11.
Variant M18N has an abundance fitness of 0.016 ± 0.077.
With M18D the abundance fitness was -0.359 ± 0.11.
Work on K24H yielded an abundance fitness of -0.694 ± 0.12.
With K24G the abundance fitness was -0.485 ± 0.071.
K24R showed an abundance fitness of -0.161 ± 0.045.
Variant K24C has an abundance fitness of -0.579 ± 0.091.
With K24I the abundance fitness was -0.738 ± 0.079.
Work on K24T yielded an abundance fitness of -0.267 ± 0.047.
K24F gave an abundance fitness of -0.494 ± 0.08.
With K24N the abundance fitness was -0.359 ± 0.056.
In the case of K24S, the abundance fitness is reported as -0.656 ± 0.058.
Variant K24L has an abundance fitness of -0.418 ± 0.039.
With K24W the abundance fitness was -0.533 ± 0.064.
K24D gave an abundance fitness of -1.33 ± 0.21.
With K24M the abundance fitness was -0.295 ± 0.046.
K24Y gave an abundance fitness of -0.164 ± 0.069.
With K24E the abundance fitness was -0.363 ± 0.054.
K24P gave an abundance fitness of -1.22 ± 0.12.
For G17R, the abundance fitness was -0.025 ± 0.056.
Work on G17T yielded an abundance fitness of -0.134 ± 0.054.
With G17D the abundance fitness was -0.398 ± 0.12.
For G17Y, the abundance fitness was -0.4 ± 0.05.
G17P showed an abundance fitness of -0.484 ± 0.087.
Variant G17V has an abundance fitness of -0.1 ± 0.053.
Variant G17K has an abundance fitness of 0.157 ± 0.046.
For G17S, the abundance fitness was -0.24 ± 0.043.
G17F showed an abundance fitness of -0.465 ± 0.041.
G17M gave an abundance fitness of -0.296 ± 0.048.
Work on G17C yielded an abundance fitness of -0.17 ± 0.062.
G17I showed an abundance fitness of -0.254 ± 0.047.
G17H gave an abundance fitness of -0.116 ± 0.066.
G17W gave an abundance fitness of -0.49 ± 0.095.
G17L gave an abundance fitness of -0.478 ± 0.036.
Variant G17N has an abundance fitness of 0.015 ± 0.057.
Variant G17Q has an abundance fitness of -0.075 ± 0.059.
Work on G17A yielded an abundance fitness of -0.07 ± 0.089.
Work on S19P yielded an abundance fitness of -0.324 ± 0.073.
S19C showed an abundance fitness of -0.155 ± 0.062.
With S19F the abundance fitness was -0.043 ± 0.039.
Work on S19L yielded an abundance fitness of -0.111 ± 0.03.
For S19Y, the abundance fitness was -0.381 ± 0.048.
In the case of S19D, the abundance fitness is reported as 0.08 ± 0.08.
With S19E the abundance fitness was -0.558 ± 0.083.
For S19N, the abundance fitness was -0.088 ± 0.085.
Variant S19T has an abundance fitness of -0.056 ± 0.051.
Work on S19K yielded an abundance fitness of -0.021 ± 0.049.
Work on S19M yielded an abundance fitness of -0.153 ± 0.039.
With S19Q the abundance fitness was -0.171 ± 0.054.
For S19V, the abundance fitness was -0.11 ± 0.042.
For S19G, the abundance fitness was 0.147 ± 0.061.
With S19R the abundance fitness was -0.224 ± 0.055.
For S19A, the abundance fitness was -0.205 ± 0.071.
Work on S19W yielded an abundance fitness of -0.145 ± 0.051.
K25T showed an abundance fitness of -0.352 ± 0.062.
K25A gave an abundance fitness of -0.225 ± 0.048.
K25Y gave an abundance fitness of -0.827 ± 0.077.
Work on K25P yielded an abundance fitness of -1.34 ± 0.21.
Work on K25L yielded an abundance fitness of -0.862 ± 0.042.
Work on K25V yielded an abundance fitness of -0.627 ± 0.032.
Work on K25S yielded an abundance fitness of -0.23 ± 0.046.
Work on K25N yielded an abundance fitness of -0.171 ± 0.061.
In the case of K25E, the abundance fitness is reported as -0.085 ± 0.048.
K25I gave an abundance fitness of -0.697 ± 0.058.
With K25G the abundance fitness was -0.231 ± 0.04.
Variant K25H has an abundance fitness of -0.325 ± 0.065.
With K25D the abundance fitness was -0.158 ± 0.058.
K25W showed an abundance fitness of -0.602 ± 0.064.
K25M showed an abundance fitness of -0.785 ± 0.057.
With K25F the abundance fitness was -0.892 ± 0.064.
In the case of L20E, the abundance fitness is reported as -0.046 ± 0.069.
With L20M the abundance fitness was -0.022 ± 0.041.
In the case of L20V, the abundance fitness is reported as -0.048 ± 0.036.
L20K showed an abundance fitness of -0.239 ± 0.052.
Work on L20G yielded an abundance fitness of -0.412 ± 0.045.
L20F showed an abundance fitness of 0.013 ± 0.032.
L20D gave an abundance fitness of -0.346 ± 0.073.
For L20R, the abundance fitness was -0.537 ± 0.045.
In the case of L20Q, the abundance fitness is reported as -0.5 ± 0.065.
Work on L20N yielded an abundance fitness of -0.724 ± 0.061.
In the case of L20C, the abundance fitness is reported as -0.205 ± 0.038.
Work on L20T yielded an abundance fitness of -0.351 ± 0.046.
L20I gave an abundance fitness of -0.026 ± 0.036.
In the case of L20P, the abundance fitness is reported as -0.841 ± 0.06.
L20S showed an abundance fitness of -0.561 ± 0.036.
L20A showed an abundance fitness of -0.234 ± 0.054.
In the case of L20W, the abundance fitness is reported as -0.008 ± 0.038.
For L20Y, the abundance fitness was 0.01 ± 0.035.
L20H showed an abundance fitness of -0.465 ± 0.057.
A26F gave an abundance fitness of -0.172 ± 0.03.
With A26D the abundance fitness was -0.954 ± 0.23.
Variant A26E has an abundance fitness of -0.252 ± 0.21.
Work on A26C yielded an abundance fitness of -0.14 ± 0.064.
With A26H the abundance fitness was -0.167 ± 0.06.
A26I gave an abundance fitness of -0.171 ± 0.035.
In the case of A26L, the abundance fitness is reported as -0.138 ± 0.028.
Variant A26K has an abundance fitness of 0.07 ± 0.049.
For L23S, the abundance fitness was -1 ± 0.06.
L23V showed an abundance fitness of -0.076 ± 0.051.
In the case of L23N, the abundance fitness is reported as -0.95 ± 0.13.
In the case of L23P, the abundance fitness is reported as -0.885 ± 0.099.
For L23E, the abundance fitness was -0.47 ± 0.14.
With L23I the abundance fitness was -0.087 ± 0.05.
L23W gave an abundance fitness of -0.541 ± 0.061.
With L23F the abundance fitness was -0.197 ± 0.038.
In the case of L23D, the abundance fitness is reported as -1.22 ± 0.27.
In the case of L23A, the abundance fitness is reported as -0.384 ± 0.094.
With L23C the abundance fitness was -0.363 ± 0.077.
For L23K, the abundance fitness was -1.12 ± 0.088.
L23H showed an abundance fitness of -1.05 ± 0.093.
Work on L23M yielded an abundance fitness of -0.226 ± 0.038.
Work on L23G yielded an abundance fitness of -1.27 ± 0.2.
L23R showed an abundance fitness of -0.942 ± 0.089.
Work on L23Y yielded an abundance fitness of -0.933 ± 0.088.
With V16P the abundance fitness was -0.416 ± 0.059.
For V16K, the abundance fitness was -0.16 ± 0.033.
V16M showed an abundance fitness of -0.076 ± 0.031.
In the case of V16R, the abundance fitness is reported as -0.718 ± 0.39.
Variant V16Y has an abundance fitness of -0.045 ± 0.033.
Variant V16T has an abundance fitness of -0.024 ± 0.052.
Variant V16I has an abundance fitness of -0.058 ± 0.033.
V16N gave an abundance fitness of 0.042 ± 0.034.
V16H showed an abundance fitness of -0.031 ± 0.051.

Reference: the Human Domainome abundance scans (Beltran et al. 2025)
